Laboratory results reported in article PMC2759774 (Molecular microbiology, 2009).

T1: MinC^C/MinD complex (MalE-MinC^C with MinD on phospholipid vesicles) (E. coli, UniProt P18196 116-231; P0AEZ3 1-270)
T1 sequence (looked up) 1: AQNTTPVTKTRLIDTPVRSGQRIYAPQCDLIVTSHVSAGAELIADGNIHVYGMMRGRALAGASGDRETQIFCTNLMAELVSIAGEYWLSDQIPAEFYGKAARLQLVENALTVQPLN
T1 sequence (looked up) 2: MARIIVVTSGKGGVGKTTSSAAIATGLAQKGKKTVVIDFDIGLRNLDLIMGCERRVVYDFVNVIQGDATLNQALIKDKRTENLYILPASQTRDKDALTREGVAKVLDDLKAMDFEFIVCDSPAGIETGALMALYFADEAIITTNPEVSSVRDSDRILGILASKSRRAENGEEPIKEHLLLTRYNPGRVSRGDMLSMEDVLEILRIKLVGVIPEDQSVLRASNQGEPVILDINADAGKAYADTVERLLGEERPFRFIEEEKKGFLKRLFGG

T2: MinD (E. coli, UniProt P0AEZ3 1-270)
T2 sequence (looked up): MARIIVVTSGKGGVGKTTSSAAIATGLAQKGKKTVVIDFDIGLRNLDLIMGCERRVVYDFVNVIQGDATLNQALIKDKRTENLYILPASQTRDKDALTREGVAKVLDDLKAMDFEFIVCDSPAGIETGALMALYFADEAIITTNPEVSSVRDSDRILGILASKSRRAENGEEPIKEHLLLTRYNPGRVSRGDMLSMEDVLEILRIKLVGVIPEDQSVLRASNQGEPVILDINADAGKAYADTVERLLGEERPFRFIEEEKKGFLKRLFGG


Key:
[1] = molecular target: T1, MinC^C/MinD complex (MalE-MinC^C with …); assay: co-sedimentation
MinD = molecular target: T2, MinD; assay: co-sedimentation

binding result [1]	binding result (MinD)	Binder
binds		WT FtsZ (natural protein, E. coli, UniProt P0A9A6 1-383, looked up) MFEPMELTNDAVIKVIGVGGGGGNAVEHMVRERIEGVEFFAVNTDAQALRKTAVGQTIQIGSGITKGLGAGANPEVGRNAADEDRDALRAALEGADMVFIAAGMGGGTGTGAAPVVAEVAKDLGILTVAVVTKPFNFEGKKRMAFAEQGITELSKHVDSLITIPNDKLLKVLGRGISLLDAFGAANDVLKGAVQGIAELITRPGLMNVDFADVRTVMSEMGYAMMGSGVASGEDRAEEAAEMAISSPLLEDIDLSGARGVLVNITAGFDLRLDEFETVGNTIRAFASDNATVVIGTSLDPDMNDELRVTVVATGIGMDKRPEITLVTNKQVQQPVMDRYQQHGMAPLTQEQKPVAKVVNDNAPQTAKEPDYLDIPAFLRKQAD
	binds	MalE-MinC^C (domain or fragment, E. coli, UniProt P18196 116-231, looked up) AQNTTPVTKTRLIDTPVRSGQRIYAPQCDLIVTSHVSAGAELIADGNIHVYGMMRGRALAGASGDRETQIFCTNLMAELVSIAGEYWLSDQIPAEFYGKAARLQLVENALTVQPLN
